# B1: Vesicle-associated membrane protein 7 (Mus musculus), P70280 (parent)
# chain: MAILFAVVARGTTILAKHAWCGGNFLEVTEQILAKIPSENNKLTYSHGNYLFHYICQDRIVYLCITDDDFERSRAFSFLNEVKKRFQTTYGSRAQTALPYAMNSEFSSVLAAQLKHHSENKSLDKVMETQAQVDELKGIMVRNIDLVAQRGERLELLIDKTENLVDSSVTFKTTSRNLARAMCMKNIKLTIIIIIVSIVFIYIIVSLLCGGFTWPNCVKK
# Variants of: B1
# Conditions: with anr27_human ANKRD27, Q96NW4
# Sequence of anr27_human ANKRD27, Q96NW4 (Q96NW4 whole entry): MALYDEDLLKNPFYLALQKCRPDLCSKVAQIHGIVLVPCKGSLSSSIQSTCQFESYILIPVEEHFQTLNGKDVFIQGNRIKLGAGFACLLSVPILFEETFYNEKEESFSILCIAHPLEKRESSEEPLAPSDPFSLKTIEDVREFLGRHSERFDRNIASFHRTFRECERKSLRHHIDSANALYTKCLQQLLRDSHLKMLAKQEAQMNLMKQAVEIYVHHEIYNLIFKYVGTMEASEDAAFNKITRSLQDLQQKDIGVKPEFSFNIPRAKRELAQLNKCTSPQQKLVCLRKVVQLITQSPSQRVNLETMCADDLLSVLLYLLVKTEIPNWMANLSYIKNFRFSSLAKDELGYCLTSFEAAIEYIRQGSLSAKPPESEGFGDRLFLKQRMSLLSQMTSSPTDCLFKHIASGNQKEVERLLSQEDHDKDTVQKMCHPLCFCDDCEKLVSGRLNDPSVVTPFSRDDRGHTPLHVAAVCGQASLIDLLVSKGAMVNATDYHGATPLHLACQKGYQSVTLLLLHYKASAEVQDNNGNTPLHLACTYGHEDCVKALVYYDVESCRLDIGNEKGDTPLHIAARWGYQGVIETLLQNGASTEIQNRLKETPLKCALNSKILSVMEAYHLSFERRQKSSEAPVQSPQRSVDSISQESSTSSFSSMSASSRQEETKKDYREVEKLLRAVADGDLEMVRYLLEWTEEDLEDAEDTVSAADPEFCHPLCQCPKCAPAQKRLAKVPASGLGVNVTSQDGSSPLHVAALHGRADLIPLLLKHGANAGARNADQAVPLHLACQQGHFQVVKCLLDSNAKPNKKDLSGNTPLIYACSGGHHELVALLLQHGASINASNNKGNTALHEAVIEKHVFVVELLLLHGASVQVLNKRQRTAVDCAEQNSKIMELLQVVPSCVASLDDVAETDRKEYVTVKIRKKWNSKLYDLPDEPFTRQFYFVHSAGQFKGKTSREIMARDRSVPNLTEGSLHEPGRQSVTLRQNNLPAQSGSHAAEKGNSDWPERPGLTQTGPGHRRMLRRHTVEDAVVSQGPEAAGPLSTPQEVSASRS
row,effect of a mutation on the interaction,Variant
1,disrupting interaction strength,MAILFAVVARGTTILAKHAWCGGNFLEVTEQILAKIPSENNKLTYSHGNYLFHYICQDRIVYLCITDDDFEASRAFSFLNEVKKRFQTTYGSRAQTALPYAMNSEFSSVLAAQLKHHSENKSLDKVMETQAQVDELKGIMVRNIDLVAQRGERLELLIDKTENLVDSSVTFKTTSRNLARAMCMKNIKLTIIIIIVSIVFIYIIVSLLCGGFTWPNCVKK [R72A]
2,disrupting interaction strength,MAILFAVVARGTTILAKHAWCGGNFLEVTEQILAKIPSENNKLTYSHGNYLFHYICQDRIVYLCITDDAFFRDRAFSFLNEVKKRFQTTYGSRAQTALPYAMNSEFSSVLAAQLKHHSENKSLDKVMETQAQVDELKGIMVRNIDLVAQRGERLELLIDKTENLVDSSVTFKTTSRNLARAMCMKNIKLTIIIIIVSIVFIYIIVSLLCGGFTWPNCVKK [D69A;E71F;S73D]
